In test [1] the target is T1, human DLL4 extracellular domain (human, UniProt Q9NR61 27-529).
T1 construct: purified recombinant ECD; biotin-labelled or 6xHis-tagged depending on the assay; also called huDLL4 ECD; hu DLL4 ECD
In words: SPR (Biacore). The procedure: Binding of DLL4 antibodies to a purified recombinant DLL4 extracellular domain (ECD) was determined by surface plasmon resonance-based measurements with a Biacore® instrument (either a Biacore 2000, Biacore 3000, or Biacore T100; GE Healthcare, Piscataway, N.J., US) using running buffer HBS-EPB (10 mM HEPES [pH 7.4], 150 mM NaCl, 3 mM EDTA, 0.1 mg/ml BSA and 0.005% surfactant P20) at 25° C. For example, approximately 9000 RU of goat anti-human Fc specific polyclonal antibody (Thermo Fisher Scientific Inc., Rockford, Ill., US) diluted in 10 mM sodium acetate (pH 4.5) is directly immobilized across a CMS research grade biosensor chip using a standard amine coupling kit according to manufacturer's instructions and procedures at 25 μg/ml. Unreacted moieties on the biosensor surface were blocked with ethanolamine. For kinetic analysis, rate equations derived from the 1:1 Langmuir binding model were fitted simultaneously to multiple antigen injections (using global fit analysis) with the use of Scrubber 2 (BioLogic Software), Biacore Biaevaluation 4.0.1 software or Biacore T100 Evaluation software. Purified antibodies were diluted in running buffer for capture across goat anti-human Fc reaction surfaces. Antibodies to be captured as a ligand (1 μg/ml) were injected over reaction matrices at a flow rate of 10 μl/min. During the assay, all measurements were referenced against the capture surface alone (i.e., with no captured anti-DLL4 antibody). […] The equilibrium dissociation constant KD (M) of the reaction between antibodies and the target antigen was then calculated from the kinetic rate constants by the following formula: KD=Koff/Kₒₙ. Binding was recorded as a function of time and kinetic rate constants were calculated. In this assay, on-rates as fast as 10⁶ M⁻¹s⁻¹ and off-rates as slow as 10⁻⁶ s⁻¹ could be measured.
The good binder variants, as determined by binding ELISA, were assessed by Biacore (Example 1.1) concurrently with cell based assay screens.
For orientation: In SPR one partner is held on a chip, and binding of the other changes the refractive index at the surface.

The target of test [2] is T1, human DLL4 extracellular domain. The test can be described thus: competition ELISA vs Notch-1 Fc. The procedure: Plates were then washed 3 times with wash buffer (PBS, 0.05% Tween-20) and blocked with 200 μl/well blocking buffer (D-PBS, 1% BSA, 1 mM CaCl₂, 0.05% Tween-20) for 1 hour at 25° C. While blocking, biotin labeled DLL4 extracellular domain (14 nM) was mixed with antibody (30 pM-66 nM, 3-fold serial dilution in blocking buffer) for 1 hour at 25° C. with shaking. Assay plates were washed after blocking, and incubated with DLL4/antibody mixtures (100 μl/well, 1 hour at 25° C. with shaking). Plates were washed again and 100 μl/well streptavidin conjugated with HRP (Fitzgerald #65R-S104PHRPx, diluted 1:5,000 in blocking buffer) was added for 1 hour at 25° C. with shaking. After a final wash, plates were developed using 100 μl/well substrate (TMB Sigma #T8665), and the reaction was stopped using 100 μl/well 1N HCl, and the absorbance was read at 450 nm. Data were analyzed using Graphpad Prism software and IC₅₀ values were reported as the concentration of antibody to achieve 50% reduction of DLL4 bound to Notch1.
Purified variants were further characterized in human Notch-1 competition ELISAs (Example 1.4), which used a format of plating Notch-1 Fc onto ELISA plates and pre-incubating biotinylated human DLL4 plus titrated antibody. Signal was assessed by free biotinylated DLL4 binding to Notch-1 Fc.
Background: An ELISA detects its analyte on a solid surface through an enzyme-linked reagent.

The target is the same in test [3]. In words: capture ELISA, biotin-huDLL4 ECD.
Test [4] has as its target T2, human DLL4, full length, on cells (human, UniProt Q9NR61 27-685). In words: cell-based or functional assay.
The target of test [5] is T2, human DLL4, full length, on cells. The test can be described thus: FACS, DLL4 cells. How it is done:
Stable cell lines overexpressing cell-surface DLL4 were harvested from tissue culture flasks, washed four times and resuspended in phosphate buffered saline (PBS) containing 1% bovine serum albumin and 1 mM CaCl₂ (FACS buffer). 1.5×10⁵ cells were incubated with antibodies at various concentrations in FACS buffer for 60 minutes on ice. […] Following an incubation on ice (4° C., 60 minutes), cells were washed three times and resuspended in FACS buffer. Fluorescence was measured using a Becton Dickinson FACSCalibur-HTS (Becton Dickinson, San Jose, Calif., US). Data were analyzed using Graphpad Prism software and EC₅₀ values were reported as the concentration of antibody to achieve 50% of maximal DLL4 antibodies binding to DLL4 expressing cells.
The good binder variants, as determined by binding ELISA, were assessed by Biacore (Example 1.1) concurrently with cell based assay screens. The KD for human DLL4 was similar for all variants (see, Biacore, KD in Table 18, below).
Background: Flow cytometry measures light scatter and fluorescence of single cells or particles in a stream.

T1 sequence (Q9NR61 27-529 limits assumed): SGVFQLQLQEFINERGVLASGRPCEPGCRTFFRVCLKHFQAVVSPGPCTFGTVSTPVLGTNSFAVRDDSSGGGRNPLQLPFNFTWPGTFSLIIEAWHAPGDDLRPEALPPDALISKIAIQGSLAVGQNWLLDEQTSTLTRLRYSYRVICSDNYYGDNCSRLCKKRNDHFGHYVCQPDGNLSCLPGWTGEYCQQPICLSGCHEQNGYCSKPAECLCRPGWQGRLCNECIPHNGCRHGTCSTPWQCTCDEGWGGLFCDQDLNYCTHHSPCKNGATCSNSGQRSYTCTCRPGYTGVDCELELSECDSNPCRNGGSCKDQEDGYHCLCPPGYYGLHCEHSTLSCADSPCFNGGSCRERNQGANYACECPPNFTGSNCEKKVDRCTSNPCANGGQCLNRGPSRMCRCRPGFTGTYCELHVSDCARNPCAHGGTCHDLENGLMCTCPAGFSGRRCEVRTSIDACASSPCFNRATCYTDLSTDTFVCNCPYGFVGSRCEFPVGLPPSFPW
T2 sequence (Q9NR61 27-685 limits assumed): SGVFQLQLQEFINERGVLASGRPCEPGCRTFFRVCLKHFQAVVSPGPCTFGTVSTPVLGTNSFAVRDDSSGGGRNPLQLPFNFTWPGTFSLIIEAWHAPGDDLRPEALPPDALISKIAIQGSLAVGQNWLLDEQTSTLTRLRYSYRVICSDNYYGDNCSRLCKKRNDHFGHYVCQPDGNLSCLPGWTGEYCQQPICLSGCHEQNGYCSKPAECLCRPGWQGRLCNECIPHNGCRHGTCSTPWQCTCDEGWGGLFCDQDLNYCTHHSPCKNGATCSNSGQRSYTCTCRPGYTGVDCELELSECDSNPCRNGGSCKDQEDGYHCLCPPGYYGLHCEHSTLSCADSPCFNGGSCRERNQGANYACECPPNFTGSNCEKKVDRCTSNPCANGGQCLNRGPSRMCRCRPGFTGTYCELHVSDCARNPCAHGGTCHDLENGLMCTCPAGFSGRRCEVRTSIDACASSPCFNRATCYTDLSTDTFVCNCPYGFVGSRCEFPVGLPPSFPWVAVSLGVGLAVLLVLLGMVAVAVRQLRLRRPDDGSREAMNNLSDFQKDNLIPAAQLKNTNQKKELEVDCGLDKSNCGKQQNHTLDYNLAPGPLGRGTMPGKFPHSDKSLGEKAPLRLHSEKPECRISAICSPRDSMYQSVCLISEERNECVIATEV

B1: h38H12.11 (antibody, V domains shown)
VH: EVQLVESGGGVVQPGRSLRLSCAASGFTFSNYGMYWVRQAPGKGLEWVAFISHGGGITYYRDSVKGRFTISRDNSKNTLYLQMNSLRAEDTAVYYCAALNWELGIDYWGQGTMVTVSS
VL: DIQMTQSPSSLSASVGDRVTITCRASEDIYSNLAWYQQKPGKAPKLLIYAANRLQDGVPSRFSGSGSGTDYTLTISSLQPEDFATYYCLQGSKFPLTFGQGTKLEIKR
notes: humanized IgG; also called VH.1b/VL.1b 38H12
The Kd is the equilibrium constant for the complex coming apart. A higher Kd goes with weaker binding. A word on the EC50: it is the concentration at which the effect is half-maximal. Low values mean greater potency, high ones weaker potency. In test [1], B1 displayed a dissociation constant Kd of 0.554 nM. The EC50 in test [2] worked out at 3.8 nM; in test [3], 0.126 nM; in test [5], 2.48 nM. Further, the “Notch Reporter Assay EC50” value in test [4] was found to be 0.657 nM.

B2: h38H12.6 (antibody, V domains shown)
VH: EVQLVESGGGVVQPGRSLRLSCAASGFTFSNYGMYWIRQAPGKGLEWVAFISHGGGITYYRDSVKGRFTISRDNSKSTLYLQMNSLRAEDTAVYHCAALNWELGIDYWGQGTMVTVSS
VL: DIQMTQSPSSLSASVGDRVTITCRASEDIYSNLAWYQKKPGKSPKLLIYAANRLQDGVPSRFSGSGSGTDYTLTISSLQPEDFATYFCLQGSKFPLTFGQGTKLEIKR
notes: humanized IgG; also called VH.1a/VL.1a 38H12
Take B2: binding in test [1] was put at a Kd of 0.434 nM. Moreover, the EC50 in test [2] turned out to be 27 nM; in test [3], 0.158 nM; in test [5], 12.3 nM. Moreover, the “Notch Reporter Assay EC50” value in test [4] came out at 6.32 nM.

B3: h38H12.4 (antibody, V domains shown)
VH: EVQLVESGGGVVQPGRSLRLSCAASGFTFSNYGMYWVRQAPGKGLEWVAFISHGGGITYYRDSVKGRFTISRDNSKNTLYLQMNSLRAEDTAVYYCARLNWELGIDYWGQGTMVTVSS
VL: EIVMTQSPATLSVSPGERATLSCRASEDIYSNLAWYQKKPGQSPRLLIYAANRLQDGVPARFSGSGSGTEYTLTISSLQSEDFAVYFCLQGSKFPLTFGQGTKLEIKR
notes: humanized IgG; also called VH.1/VL.2a 38H12
Turning to B3, in test [3], the EC50 turned out to be 20.6 nM.

B4: h38H12.14 (antibody, V domains shown)
VH: EVQLVESGGGLVQPGGSLRLSCAASGFTFSNYGMYWIRQAPGKGLEWVAFISHGGGITYYRDSVKGRFTISRDNSKSTLYLQMNSLRAEDTAVYHCAALNWELGIDYWGQGTMVTVSS
VL: DIQMTQSPSSLSASVGDRVTITCRASEDIYSNLAWYQKKPGKSPKLLIYAANRLQDGVPSRFSGSGSGTDYTLTISSLQPEDFATYFCLQGSKFPLTFGQGTKLEIKR
notes: humanized IgG; also called VH.2a/VL.1a 38H12
As for B4, the Kd in test [1] came to 0.303 nM. For the same molecule, the EC50 worked out at 5.84 nM in test [2], 0.146 nM in test [3] and 1.04 nM in test [5]. For the same molecule, the “Notch Reporter Assay EC50” value in test [4] was 1.01 nM.

B5: h38H12.2 (antibody, V domains shown)
VH: EVQLVESGGGVVQPGRSLRLSCAASGFTFSNYGMYWVRQAPGKGLEWVAFISHGGGITYYRDSVKGRFTISRDNSKNTLYLQMNSLRAEDTAVYYCARLNWELGIDYWGQGTMVTVSS
VL: DIQMTQSPSSLSASVGDRVTITCRASEDIYSNLAWYQKKPGKSPKLLIYAANRLQDGVPSRFSGSGSGTDYTLTISSLQPEDFATYFCLQGSKFPLTFGQGTKLEIKR
notes: humanized IgG; also called VH.1/VL.1a 38H12
As for B5, the EC50 in test [3] worked out at 26.9 nM.

B6: h38H12.10 (antibody, V domains shown)
VH: EVQLVESGGGVVQPGRSLRLSCAASGFTFSNYGMYWVRQAPGKGLEWVAFISHGGGITYYRDSVKGRFTISRDNSKNTLYLQMNSLRAEDTAVYYCAALNWELGIDYWGQGTMVTVSS
VL: DIQMTQSPSSLSASVGDRVTITCRASEDIYSNLAWYQKKPGKSPKLLIYAANRLQDGVPSRFSGSGSGTDYTLTISSLQPEDFATYFCLQGSKFPLTFGQGTKLEIKR
notes: humanized IgG; also called VH.1b/VL.1a 38H12
Molecule B6 yielded an equilibrium dissociation constant (Kd) in test [1] of 0.578 nM. Moreover, the figures for the EC50 in test [2], in test [3] and in test [5] were 3.9 nM, 0.123 nM and 2.49 nM, respectively. For the same molecule, in test [4], the “Notch Reporter Assay EC50” value was found to be 0.786 nM.

B7: h38H12.1 (antibody, V domains shown)
VH: EVQLVESGGGVVQPGRSLRLSCAASGFTFSNYGMYWVRQAPGKGLEWVAFISHGGGITYYRDSVKGRFTISRDNSKNTLYLQMNSLRAEDTAVYYCARLNWELGIDYWGQGTMVTVSS
VL: DIQMTQSPSSLSASVGDRVTITCRASEDIYSNLAWYQQKPGKAPKLLIYAANRLQDGVPSRFSGSGSGTDFTLTISSLQPEDFATYYCLQGSKFPLTFGQGTKLEIKR
notes: humanized IgG; also called VH.1/VL.1 38H12
With B7, the 50% effective concentration (EC50) came out at 21.5 nM in test [3] and 17.8 nM in test [5].

B8: h38H12.9 (antibody, V domains shown)
VH: EVQLVESGGGVVQPGRSLRLSCAASGFTFSNYGMYWVRQAPGKGLEWVAFISHGGGITYYRDSVKGRFTISRDNSKNTLYLQMNSLRAEDTAVYYCAALNWELGIDYWGQGTMVTVSS
VL: DIQMTQSPSSLSASVGDRVTITCRASEDIYSNLAWYQQKPGKAPKLLIYAANRLQDGVPSRFSGSGSGTDFTLTISSLQPEDFATYYCLQGSKFPLTFGQGTKLEIKR
notes: humanized IgG; also called VH.1b/VL.1 38H12
B8 had a dissociation constant Kd in test [1] of 0.986 nM. Moreover, the results for the concentration giving a half-maximal response (EC50) in test [2], in test [3] and in test [5] were 4.16 nM, 0.116 nM and 3.71 nM, respectively. The “Notch Reporter Assay EC50” value in test [4] came out at 1.44 nM.

B9: h38H12.5 (antibody, V domains shown)
VH: EVQLVESGGGVVQPGRSLRLSCAASGFTFSNYGMYWIRQAPGKGLEWVAFISHGGGITYYRDSVKGRFTISRDNSKSTLYLQMNSLRAEDTAVYHCAALNWELGIDYWGQGTMVTVSS
VL: DIQMTQSPSSLSASVGDRVTITCRASEDIYSNLAWYQQKPGKAPKLLIYAANRLQDGVPSRFSGSGSGTDFTLTISSLQPEDFATYYCLQGSKFPLTFGQGTKLEIKR
notes: humanized IgG; also called VH.1a/VL.1 38H12
Molecule B9 yielded a Kd in test [1] of 0.401 nM. Besides, the concentration for a half-maximal effect (EC50) in test [2] came out at 14.8 nM; in test [3] it was 0.202 nM; in test [5], 77.2 nM. The “Notch Reporter Assay EC50” value in test [4] came out at 7.31 nM.

B10: h38H12.13 (antibody, V domains shown)
VH: EVQLVESGGGLVQPGGSLRLSCAASGFTFSNYGMYWIRQAPGKGLEWVAFISHGGGITYYRDSVKGRFTISRDNSKSTLYLQMNSLRAEDTAVYHCAALNWELGIDYWGQGTMVTVSS
VL: DIQMTQSPSSLSASVGDRVTITCRASEDIYSNLAWYQQKPGKAPKLLIYAANRLQDGVPSRFSGSGSGTDFTLTISSLQPEDFATYYCLQGSKFPLTFGQGTKLEIKR
notes: humanized IgG; also called VH.2a/VL.1 38H12
B10 returned a dissociation constant (Kd) in test [1] of 0.507 nM. Also, the figures for the EC50 in test [2], in test [3] and in test [5] were 5.29 nM, 0.153 nM and 2.56 nM, respectively. In test [4], the “Notch Reporter Assay EC50” value is 0.794 nM.

B11: h38H12.3 (antibody, V domains shown)
VH: EVQLVESGGGVVQPGRSLRLSCAASGFTFSNYGMYWVRQAPGKGLEWVAFISHGGGITYYRDSVKGRFTISRDNSKNTLYLQMNSLRAEDTAVYYCARLNWELGIDYWGQGTMVTVSS
VL: DIQMTQSPSSLSASVGDRVTITCRASEDIYSNLAWYQQKPGKAPKLLIYAANRLQDGVPSRFSGSGSGTDYTLTISSLQPEDFATYYCLQGSKFPLTFGQGTKLEIKR
notes: humanized IgG; also called VH.1/VL.1b 38H12
Take B11: the concentration giving a half-maximal response (EC50) in test [3] was 5.57 nM.
